The values below come from patent publication US20200316217A1 (CHILDREN S MEDICAL CENTER, published 2020).

Ends that are not written are not given here. Bounds are passed on as bounds.

The target of one assay is T1, human PTHR2 (human, UniProt P49190 25-550).
T1 construct: whole, on cells; Stably expressed on HEK293 cells; also called hPTHR2
Briefly: flow cytometry, AlexaFluor647-VHH on stably transfected HEK293 cells. Here is the method: (§1) FIGS. 14A-14B: Binding of VHHs to HEK293 cell lines stably transfected with PTHRs. (FIG. 14A) Analysis of VHH binding to PTHR1, PTHR2 and variants by flow cytometry. HEK293 cell lines in suspension were incubated on ice with 100 nM VHH sortagged with Alexafluor647, pelleted by centrifugation, washed and analyzed. Data for PTHR1-GFP is found in FIGS. 17A to 17C. (FIG. 14B) Analysis of VHH binding with microscopy. […] Following staining, cells were washed and treated with fixative in preparation for image acquisition either immediately after staining (0 m) or following a 15-minute incubation in medium at room temperature (15 m).
(§2) Suspensions of cells in PBS were stained for 1 hour on ice in the presence of indicated concentrations of VHH probes functionalized with Alexafluor647. Cells were pelleted by centrifugation and washed with PBS prior to analysis by flow cytometry (BD Accuri C6). Gating was performed on forward scatter/side scatter profiles to analyze intact cells. Data was analyzed using FlowJo version 7.6. The median fluorescent intensity (MFI) of stained cells was used to generate VHH binding dose response curves (FIG. 20).
(§3) It was determined whether VHHs bound to their intended targets on live cells by flow cytometry (FIG. 14A).
In general terms: In flow cytometry, cells or beads pass a laser one at a time.

For assay [1], the target named is T2, PTHR16E (human, UniProt Q03431 27-593).
T2 construct: Stably expressed on HEK293 cells; also called hPTHR16E
T2 chain: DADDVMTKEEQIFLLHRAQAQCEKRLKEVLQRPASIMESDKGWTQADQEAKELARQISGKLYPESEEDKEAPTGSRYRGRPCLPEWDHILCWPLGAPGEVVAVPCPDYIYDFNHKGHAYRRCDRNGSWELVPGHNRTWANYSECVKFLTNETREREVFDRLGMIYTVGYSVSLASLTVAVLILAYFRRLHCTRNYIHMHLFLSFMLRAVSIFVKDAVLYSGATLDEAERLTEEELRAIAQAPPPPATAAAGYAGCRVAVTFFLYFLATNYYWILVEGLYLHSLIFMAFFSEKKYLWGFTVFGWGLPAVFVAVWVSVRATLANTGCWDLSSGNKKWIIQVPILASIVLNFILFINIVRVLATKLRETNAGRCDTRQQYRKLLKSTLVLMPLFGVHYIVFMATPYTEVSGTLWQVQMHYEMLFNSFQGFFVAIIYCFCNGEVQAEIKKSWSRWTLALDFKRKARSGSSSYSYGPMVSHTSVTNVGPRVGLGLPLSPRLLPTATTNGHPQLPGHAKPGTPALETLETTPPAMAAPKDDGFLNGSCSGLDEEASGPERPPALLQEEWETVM
Briefly: flow cytometry, AlexaFluor647-VHH titrated on HEK293 cells expressing the receptor (MFI). Here is the method: as §2
(§4) It was determined whether VHHs bound to their intended targets on live cells by flow cytometry (FIG. 14A). […] To estimate the affinity of the selected VHH for their targets flow cytometry was used to quantify binding.

The target in assay [2] is PTHR1YFPΔECD (human). Briefly: cell-based or functional assay.
Assay [3] has as its target T3, rat PTHR1 (rat, UniProt P25961 27-591).
T3 sequence (looked up): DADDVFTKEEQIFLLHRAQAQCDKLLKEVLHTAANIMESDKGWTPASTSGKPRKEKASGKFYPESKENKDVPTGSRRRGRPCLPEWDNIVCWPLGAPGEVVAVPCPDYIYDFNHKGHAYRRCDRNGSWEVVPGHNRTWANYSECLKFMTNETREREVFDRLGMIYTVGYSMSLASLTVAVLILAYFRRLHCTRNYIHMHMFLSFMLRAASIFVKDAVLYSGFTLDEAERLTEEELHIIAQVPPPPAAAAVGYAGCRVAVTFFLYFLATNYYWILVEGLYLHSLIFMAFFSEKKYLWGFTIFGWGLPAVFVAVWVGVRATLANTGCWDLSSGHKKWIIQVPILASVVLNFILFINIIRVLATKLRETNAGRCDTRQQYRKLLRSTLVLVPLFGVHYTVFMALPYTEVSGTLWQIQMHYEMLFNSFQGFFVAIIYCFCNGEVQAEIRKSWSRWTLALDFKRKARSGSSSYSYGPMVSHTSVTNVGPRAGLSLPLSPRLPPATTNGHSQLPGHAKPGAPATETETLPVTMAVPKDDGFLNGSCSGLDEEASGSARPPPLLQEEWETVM
Briefly: cell-based or functional assay.

Assay [4] deals with PTHR1YFPΔECD (human). Briefly: cell-based or functional assay. This is another data set of the same source.
For assay [5], the target named is T4, PTHR1YFPΔECD (human).
T4 construct: PTHR1 in which YFP replaces the entire extracellular domain; Stably expressed on HEK293 cells (GD5); also called Human PTHR1-delNT-YFP; hPTHR1YFPΔECD
Briefly: flow cytometry, AlexaFluor647-VHH on stably transfected HEK293 cells. The protocol: as §1, §2, §3

Another assay has as its target T5, Human PTHR1 WT (human, UniProt Q03431 27-593).
T5 construct: Stably expressed on HEK293 cells (GP2.3); also called hPTHR1; wild-type PTHR1
T5 sequence: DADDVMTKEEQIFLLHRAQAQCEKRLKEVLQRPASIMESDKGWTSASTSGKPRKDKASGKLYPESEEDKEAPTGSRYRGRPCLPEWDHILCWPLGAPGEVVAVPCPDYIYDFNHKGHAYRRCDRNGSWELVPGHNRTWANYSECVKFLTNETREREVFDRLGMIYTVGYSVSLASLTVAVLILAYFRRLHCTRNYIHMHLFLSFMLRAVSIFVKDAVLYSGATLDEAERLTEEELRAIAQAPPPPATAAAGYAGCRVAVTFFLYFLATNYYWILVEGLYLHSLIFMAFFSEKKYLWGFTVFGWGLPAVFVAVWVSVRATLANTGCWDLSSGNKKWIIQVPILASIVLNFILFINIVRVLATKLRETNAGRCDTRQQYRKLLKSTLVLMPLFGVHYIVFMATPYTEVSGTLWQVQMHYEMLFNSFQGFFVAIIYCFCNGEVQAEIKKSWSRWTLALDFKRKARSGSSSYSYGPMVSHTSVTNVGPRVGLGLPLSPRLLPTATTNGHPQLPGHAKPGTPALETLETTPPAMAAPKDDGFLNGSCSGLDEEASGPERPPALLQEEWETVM
Briefly: flow cytometry, AlexaFluor647-VHH titrated on HEK293 cells expressing the receptor (MFI); plateau estimated. The protocol:
as §2, §4

Assay [6] concerns the target T3, rat PTHR1. The description is as above. Here is the method: as §2, §4
Assay [7] has as its target T2, PTHR16E. The assay is described as above. Here is the method: as §2, §4
For another assay, the target named is T6, PTHR1GFP (human, UniProt Q03431 95-593).
T6 construct: Human PTHR1 with the pH-sensitive GFP variant pHluorin2 inserted in the exon 2 portion; Stably expressed on HEK293 cells (GPG10); also called hPTHR1-GFP; hPTHR1GFP
The description is as above. The protocol: as §2, §4

T1 sequence (P49190 25-550): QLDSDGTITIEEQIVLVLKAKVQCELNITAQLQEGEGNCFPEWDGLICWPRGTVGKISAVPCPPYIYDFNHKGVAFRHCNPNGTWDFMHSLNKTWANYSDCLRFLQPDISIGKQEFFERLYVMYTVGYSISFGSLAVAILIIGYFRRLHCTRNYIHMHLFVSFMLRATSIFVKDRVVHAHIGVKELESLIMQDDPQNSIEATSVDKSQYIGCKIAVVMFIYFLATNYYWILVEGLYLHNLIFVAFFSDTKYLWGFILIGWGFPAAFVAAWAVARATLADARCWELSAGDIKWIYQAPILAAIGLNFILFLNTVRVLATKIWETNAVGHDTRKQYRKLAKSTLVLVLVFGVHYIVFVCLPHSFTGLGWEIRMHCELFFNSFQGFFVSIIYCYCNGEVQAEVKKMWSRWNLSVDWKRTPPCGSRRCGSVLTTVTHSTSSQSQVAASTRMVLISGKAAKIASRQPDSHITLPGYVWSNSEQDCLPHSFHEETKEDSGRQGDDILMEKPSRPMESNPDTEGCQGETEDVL

B1: VHHGFP (VHH)
VHH: QVQLQESGGALVQPGGSLRLSCAASGFPVNRYSMRWYRQAPGKEREWVAGMSSAGDRSSYEDSVKGRFTISRDDARNTVYLQMNSLKPEDTAVYYCNVNVGFEYWGQGTQVTVSS
modifications: C-terminus sortagged to a GGG-probe (AlexaFluor647 or biotin-azide)
notes: also called VHH Enhancer; VHH-enhancer
Regarding B1, in the assay with human PTHR2, the binding result was “no binding (tested: 100 nM)”.

B2: VHH6E (VHH)
VHH: QVQLQESGGGLVQPGGSLRLSCAASGFVFENSAMAWYRQAPGKERELIAVIGTTFIKLAESVKGRFTISRDNAKSTVYLQMNNLKPEDTAVYYCSKSGAYWGQGTQVTVSS
modifications: C-terminus sortagged to a GGG-probe (AlexaFluor647, tetramethylrhodamine or biotin-azide)
notes: It recognises a 14-mer from UBC6e; also called VHH05; VHH005
Regarding B2, the binding result in the assay with human PTHR2 was “no binding (tested: 100 nM)”. In the assay with PTHR16E [1], the EC50 (usually the concentration giving half of the maximal effect) was below 10 nM.

For the molecule SVSEIQLMHNLGKHLNSMERVEWLRKKLQDVHNF-NH2 [PTH(1-34)], in the assay with PTHR1YFPΔECD [2], the “cAMP induction EC50” value stood at 689 nM and the “cAMP induction Max (normalized)” value stood at 1 normalized. The “cAMP induction Max (normalized)” value with rat PTHR1 [3] was determined as 1 normalized. Besides, the “Stimulation of receptor (cAMP), EC50” value with PTHR1YFPΔECD [4] worked out at 689 nM.

B3: VHHPTHR (VHH)
VHH: EVQLVESGGGLVQAGGSLRLSCAASGNIFANNIMGWYRQPPGKEREFVAHVSHDGDSMYAVSVKGRFAISRKDATNLYLQMNSLKPEDTAIYFCRLLNIPTQGRMEGFWGQGTQVTVSS
modifications: C-terminus sortagged to a GGG-probe (AlexaFluor647, tetramethylrhodamine or biotin-azide)
notes: The label depends on the assay; also called VHH22A3; 22A3
As for B3, the binding result with PTHR1YFPΔECD [5] and in the assay with human PTHR2 was “no binding (tested: 100 nM)” in each case. Besides, the EC50 in the assay with Human PTHR1 WT, with rat PTHR1 [6], in the assay with PTHR16E [7] and with PTHR1GFP was 100 to 200 nM each time.
